Data from patent publication US20240409647A1 (SINOMAB BIOSCIENCE, published 2024).

Legend:
[1] = molecular target: T1, human IL-17 receptor subunit D (human, UniProt Q8NFM7 28-299, limits assumed); assay: ELISA, coated receptor; SM17 at 0.0032 µg/mL; well 1
T1 construct: also called IL17RD; hIL 17RD
T1 sequence (looked up): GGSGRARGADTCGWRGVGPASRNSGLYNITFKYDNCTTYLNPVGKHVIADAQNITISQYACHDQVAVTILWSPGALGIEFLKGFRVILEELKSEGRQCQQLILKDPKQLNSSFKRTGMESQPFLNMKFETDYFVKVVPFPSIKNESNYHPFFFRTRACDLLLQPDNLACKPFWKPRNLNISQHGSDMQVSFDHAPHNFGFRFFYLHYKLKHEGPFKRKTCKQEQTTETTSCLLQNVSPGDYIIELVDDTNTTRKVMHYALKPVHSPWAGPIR

[2] = molecular target: T2, human IL-17RB protein (recombinant, R&D systems) (human); assay: as above
T2 construct: Bought protein; also called hIL17RB
T2 sequence (Q9NRM6 whole entry, looked up): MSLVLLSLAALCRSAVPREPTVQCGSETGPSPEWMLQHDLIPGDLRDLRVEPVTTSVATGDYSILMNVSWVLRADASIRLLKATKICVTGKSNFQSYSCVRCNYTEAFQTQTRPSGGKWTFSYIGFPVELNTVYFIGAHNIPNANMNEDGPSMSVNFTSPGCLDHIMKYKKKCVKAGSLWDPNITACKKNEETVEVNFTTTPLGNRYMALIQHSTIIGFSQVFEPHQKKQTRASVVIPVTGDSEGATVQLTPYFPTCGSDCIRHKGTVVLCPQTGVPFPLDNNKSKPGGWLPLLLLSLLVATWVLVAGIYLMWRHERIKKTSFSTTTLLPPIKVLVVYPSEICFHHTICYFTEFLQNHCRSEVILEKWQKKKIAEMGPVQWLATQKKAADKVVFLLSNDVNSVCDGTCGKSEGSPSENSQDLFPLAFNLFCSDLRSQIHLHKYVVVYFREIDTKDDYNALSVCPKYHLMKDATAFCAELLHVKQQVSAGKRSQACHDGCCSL

[3] = molecular target: T3, human IL-17 receptor subunit C (human, UniProt Q8NAC3-2 21-467, limits assumed); assay: as above
T3 construct: also called IL17RC; hIL17RC
T3 sequence (looked up): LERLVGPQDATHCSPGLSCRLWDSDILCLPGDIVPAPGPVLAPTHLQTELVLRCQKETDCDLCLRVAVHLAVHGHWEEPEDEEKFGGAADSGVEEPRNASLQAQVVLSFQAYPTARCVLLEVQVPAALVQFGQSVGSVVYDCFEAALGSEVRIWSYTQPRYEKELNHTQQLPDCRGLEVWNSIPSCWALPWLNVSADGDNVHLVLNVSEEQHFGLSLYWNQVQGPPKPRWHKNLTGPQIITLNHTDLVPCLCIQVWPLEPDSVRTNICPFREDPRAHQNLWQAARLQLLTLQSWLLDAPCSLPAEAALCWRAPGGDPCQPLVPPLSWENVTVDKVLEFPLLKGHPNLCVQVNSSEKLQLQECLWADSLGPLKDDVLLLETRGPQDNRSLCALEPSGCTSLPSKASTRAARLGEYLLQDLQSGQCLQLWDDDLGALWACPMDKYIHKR

[4] = molecular target: T4, human IL-17 receptor subunit A (human, UniProt Q96F46 33-320); assay: as above
T4 construct: also called IL17RA; hIL17RA

[5] = molecular target: T5, human IL-17 receptor subunit E (human, UniProt Q8NFR9 24-454, limits assumed); assay: as above
T5 construct: also called hIL17RE
T5 sequence (looked up): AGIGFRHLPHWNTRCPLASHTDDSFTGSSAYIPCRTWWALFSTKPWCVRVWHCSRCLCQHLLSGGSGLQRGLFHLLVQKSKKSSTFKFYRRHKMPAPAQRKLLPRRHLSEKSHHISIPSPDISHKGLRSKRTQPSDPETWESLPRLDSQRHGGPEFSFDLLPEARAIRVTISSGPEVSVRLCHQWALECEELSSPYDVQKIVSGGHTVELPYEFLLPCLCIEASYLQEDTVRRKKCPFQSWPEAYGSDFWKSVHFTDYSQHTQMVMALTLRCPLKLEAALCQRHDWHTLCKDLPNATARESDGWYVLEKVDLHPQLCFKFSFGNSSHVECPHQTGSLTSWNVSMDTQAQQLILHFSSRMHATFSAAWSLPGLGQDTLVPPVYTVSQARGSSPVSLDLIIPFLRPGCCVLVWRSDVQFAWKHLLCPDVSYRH

[6] = molecular target: T6, cynomolgus monkey IL-17RB protein (recombinant, R&D systems) (cynomolgus monkey, UniProt A0A2K5TUK1 18-289); assay: BLI (Octet RED96), SM17 captured via anti-human Fab CH1, IL17RB in solution; trial 1
T6 construct: also called cynomolgus IL17RB; Cyno-IL17RB
T6 sequence: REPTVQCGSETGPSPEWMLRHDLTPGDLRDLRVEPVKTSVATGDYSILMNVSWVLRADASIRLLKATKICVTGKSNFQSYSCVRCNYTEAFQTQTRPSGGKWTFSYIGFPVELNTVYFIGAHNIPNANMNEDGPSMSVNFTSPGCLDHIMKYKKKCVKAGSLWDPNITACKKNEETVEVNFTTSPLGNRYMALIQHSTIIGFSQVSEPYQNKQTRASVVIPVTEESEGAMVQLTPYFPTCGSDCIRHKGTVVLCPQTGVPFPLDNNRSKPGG
Source text: Irrelevant antibody (SM03, anti-human CD22 chimeric IgG1 antibody, SinoMab BioScience Limited) was used as the control reference.

[7] = molecular target: T1, human IL-17 receptor subunit D; assay: ELISA, coated receptor; SM17 at 0.0032 µg/mL; well 2
[8] = molecular target: T2, human IL-17RB protein (recombinant, R&D …); assay: as above
[9] = molecular target: T3, human IL-17 receptor subunit C; assay: as above
[10] = molecular target: T4, human IL-17 receptor subunit A; assay: as above
[11] = molecular target: T5, human IL-17 receptor subunit E; assay: as above

OD 450 nm Absorption [1]: 0.04 OD450
OD 450 nm Absorption [2]: 0.16 OD450
OD 450 nm Absorption [3]: 0.03 OD450
OD 450 nm Absorption [4]: 0.2 OD450
OD 450 nm Absorption [5]: -0.01 OD450
Kd [6]: 0.852 nM
koff [6]: 2.73e-05 s⁻¹
kon [6]: 32100 M⁻¹ s⁻¹
OD 450 nm Absorption [7]: -0.04 OD450
OD 450 nm Absorption [8]: 0.07 OD450
OD 450 nm Absorption [9]: -0.04 OD450
OD 450 nm Absorption [10]: -0.03 OD450
OD 450 nm Absorption [11]: -0.02 OD450
B1: SM17 (antibody, human IgG4 S228P, kappa, V domains shown)
VH: QVQLVQSGAEVKKPGASVKVSCKASGYTFISYWMNWVRQAPGQGLEWMGRIDPYDSEIQYNQKFKDRVTMTRDTSISTAYMELSRLRSDDTAVYYCARSGGFDWFAYWGQGTLVTVSS
VL: DIQMTQSPSSLSASVGDRVTITCRASENINSNLAWYQQKPGKAPKLLLYDVTNLADGVPSRFSGSGSGTDYTLTISSLQPEDFATYYCQHFWGPPYTFGGGTKVEIKR
notes: other paragraphs and claim 15 call the same entries VH and VL; also called humanized anti-IL17RB monoclonal antibody
